In US20100183640A1:

Molecular target: purified human fibronectin (hFn), from human plasma (human) (UniProt P02751)
Assay: cell-based or functional assay

B1: recombinant human uteroglobin (ligand)
chain: EICPSFQRVIETLLMDTPSSYEAAMELFSPDQDMREAGAQLKKLVDTLPQKPRESIIKLMEKIAQSSLCN
% Inhibition of adhesion of NIH-3T3 cells to hFn-coated wells (50 ng rhUG): 54%
Percent Inhibition of cellular adhesion to fibronectin, Hela cell line (50 ng): -5%
Percent Inhibition of cellular adhesion to fibronectin, NIH-3T3 cell line (50 ng): 54%
